Like-named read-outs stand apart in the source and are kept apart here.
[1] = G3, cols c1,3,5,7,9,11,13=0.03,0.1,0.3,1,3,5,10 mg/kg, c15 overall N=20
[2] = G4, cols c2,4,6,8,10,12,14=0.03,0.1,0.3,1,3,5,10 mg/kg, c16 overall N=20
[3] = G4, cols c2,4,6,8,10,12,14=0.03,0.1,0.3,1,3,5,10 mg/kg, last col overall N=20

Method: The phase 1a dose escalation study in US (ClinicalTrials.gov Identifier: NCT03707093) included accelerated titration (0.03, 0.1 and 0.3 mg/kg) and conventional dose escalation (1, 3, and 10 mg/kg). The phase 1a dose escalation study in China (ClinicalTrials.gov Identifier: NCT03802955) included accelerated titration (0.1 mg/kg) and conventional dose escalation (0.5, 1.5, 3, 5, and 10 mg/kg). […] Patients with advanced or metastatic solid tumors and/or non-Hodgkin lymphoma who were refractory or relapsed and exhausted all available therapies were enrolled and received treatment until disease progression, intolerable toxicity, withdrawal with consent, or for a maximum of 24 months.
Dose expansion studies were conducted for dose levels that were proven tolerable in Phase 1a and with evidence of clinical or biological activity. The dose levels studied in Phase 1 b were 3 mg/kg and 5 mg/kg.

Substance: ADG106: fully human agonistic anti-CD137 monoclonal IgG4 antibody; heavy chain SEQ ID NO: 10, light chain SEQ ID NO: 11
- TEAE white blood cell count increase (China update, 57 patients): 21%
- patients with G3 to 4 TEAEs (China update, 21 patients): 35%
- SAEs (all causes) (China update, in 11 patients): 15
- Lab abnormality Leukocyte ↓, patients [1]: 0
- Lab abnormality Neutrophil ↓, patients [1]: 0
- Lab abnormality Platelet ↓, patients [1]: 0
- TEAE Arthralgia, patients [1]: 0
- TEAE Constipation, patients [1]: 0
- TEAE Cough, patients [1]: 0
- TEAE Dehydration, patients [1]: 0
- TEAE Fever, patients [1]: 0
- TEAE Hypothyroidism, patients [1]: 0
- TEAE Myalgia, patients [1]: 0
- TEAE Peripheral edema, patients [1]: 0
- TEAE Weight ↓, patients [1]: 0
- Lab abnormality Hemoglobin ↓, patients [2]: 0
- Lab abnormality Leukocyte ↓, patients [2]: 0
- Lab abnormality Neutrophil ↓, patients [2]: 0
- Lab abnormality Platelet ↓, patients [2]: 0
- TEAE (preferred term not given), patients [3]: 0
- TEAE AST increase, patients [3]: 0
- TEAE Anemia, patients [3]: 0
- TEAE Appetite ↓, patients [3]: 0
- TEAE Arthralgia, patients [3]: 0
- TEAE Constipation, patients [3]: 0
- TEAE Cough, patients [3]: 0
- TEAE Dehydration, patients [3]: 0
- TEAE Diarrhea, patients [3]: 0
- TEAE Dyspnea, patients [3]: 0
- TEAE Fever, patients [3]: 0
- TEAE Hypothyroidism, patients [3]: 0
- TEAE Lymphopenia, patients [3]: 0
- TEAE Myalgia, patients [3]: 0
- TEAE Peripheral edema, patients [3]: 0
- TEAE Respiratory failure, patients [3]: 0
- TEAE Tumor pain, patients [3]: 0
- TEAE Vomiting, patients [3]: 0
- TEAE Weight ↓, patients [3]: 0
- >=G3 adverse events (Overall N=40): 15 n (%)
- Any Drug Related TEAEs (Overall N=40): 26 n (%)
- Any SAE (Overall N=40): 10 n (%)
- Any TEAEs Leading to Study Drug Discontinuation (Overall N=40): 5 n (%)
- Any TEAEs leading to Study Drug Dose Reduction or Interruption (Overall N=40): 1 n (%)
- Any TEAEs with Outcome of Death (Overall N=40): 2 n (%)
- Drug Related SAE (Overall N=40): 4 n (%)
- SAE leading to Drug discontinuation (Overall N=40): 3 n (%)
- Any DLTs (Overall N=40, first 2 cycles): 3 n (%)
- ≥Grade 4 TEAEs (Table 6 population): there was no≥Grade 4 TEAEs
- dose below which ≥G3 treatment related AEs were not observed (US and China trials): less than 3 mg/kg
- total dose at which ADG106 was well tolerated (US and China trials): below 500 mg
- dose at which DLT occurs, by body weight (US and Chinese patients): around 10 mg/kg
- total dose at which DLT occurs (US and Chinese patients): ~500 mg
- tolerability of flat Q3W IV dose of 300 mg and 400 mg (US trial): safe and well tolerated
- G3 ALP increase (US update): 2/35
- G3 GGT increase (US update): 3/35
- G3 or G4 decreases of leukocytes, platelets, and neutrophils (US update): There was no G3 or G4 decreases
- G4 drug-related TEAEs (US update): there was no G4 drug-related TEAEs
- Grade 3 AE anemia (US update): 2/35
- Grade 3 AE decreased appetite (US update): 2/35
- Grade 3 AE dyspnea (US update): 2/35
- Grade 3 AE fatigue (US update): 5/35
- Grade 3 AE tumor pain (US update): 1/35
- Grade 3 AE vomiting (US update): 1/35
- Grade 3 drug-related TEAE AST increase (US update): 1/35
- Grade 3 drug-related TEAE adrenal insufficiency (US update): 1/35
- Grade 3 drug-related TEAE anemia (US update): 1/35
- Grade 3 drug-related TEAE decreased appetite (US update): 1/35
- Grade 3 drug-related TEAE dyspnea (US update): 1/35
- Grade 3 drug-related TEAE fatigue (US update): 3/35
- Grade 3 drug-related TEAE influenza like symptoms (US update): 1/35
- DLTs observed (US update Nov. 30, 2020, 7 dose escalation cohorts 0.03-10 mg/kg Q3W): 2
- AE anemia, regardless of causality (US update, 35 patients): 11%
- AE arthralgia, regardless of causality (US update, 35 patients): 14%
- AE decreased appetite, regardless of causality (US update, 35 patients): 20%
- AE dehydration, regardless of causality (US update, 35 patients): 14%
- AE dizziness, regardless of causality (US update, 35 patients): 11%
- AE dyspnea, regardless of causality (US update, 35 patients): 11%
- AE fatigue, regardless of causality (US update, 35 patients): 29%
- AE nausea, regardless of causality (US update, 35 patients): 23%
- AE peripheral edema, regardless of causality (US update, 35 patients): 14%
- AE tumor pain, regardless of causality (US update, 35 patients): 11%
- AE vomiting, regardless of causality (US update, 35 patients): 14%
- ALT increased, all grade (US update, 35 patients): 23%
- AST increased, all grades (US update, 35 patients): 43%
- albumin decreased, all grade (US update, 35 patients): 57%
- hemoglobin decrease, all grades (US update, 35 patients): 89%
- lymphocytes decrease, all grades (US update, 35 patients): 57%
- patients discontinued due to adverse events (US update, 35 patients): 9%
- total bilirubin increased (US update, 35 patients): 6%
- SAEs related to the study treatment (US update, in 3 patients): 4
- SAEs (all causes) (US update, in 13 patients): 17
- TEAE anemia, regardless of causality (most common TEAEs (≥10%)): 10%
- TEAE arthralgia, regardless of causality (most common TEAEs (≥10%)): 10%
- TEAE decreased appetite, regardless of causality (most common TEAEs (≥10%)): 10%
- TEAE dyspnea, regardless of causality (most common TEAEs (≥10%)): 10%
- TEAE lymphopenia, regardless of causality (most common TEAEs (≥10%)): 15%
- TEAE respiratory failure, regardless of causality (most common TEAEs (≥10%)): 10%
- drug related death (up to 10 mg/kg): no drug related death

From patent US20230133118A1, “COMPOSITIONS AND METHODS FOR TREATING CANCER” (Adagene AG, priority 2020, published 2023)
